Assay results from patent US20220119492A1 (MEDIKINE, published 2022).
Bridge positions count the residues as written; N and C are the ends. Ends that are not written are not given here.

T1: human IL-2Rβ (CD122 protein, Fc Tag) (27-239) (human, UniProt P14784 27-239)
T1 construct: range 27-239; Bought protein; also called hu-IL-2Rβ subunit; IL-2Rβ subunit; not shown: Fc tag of the bought protein
T1 sequence (looked up): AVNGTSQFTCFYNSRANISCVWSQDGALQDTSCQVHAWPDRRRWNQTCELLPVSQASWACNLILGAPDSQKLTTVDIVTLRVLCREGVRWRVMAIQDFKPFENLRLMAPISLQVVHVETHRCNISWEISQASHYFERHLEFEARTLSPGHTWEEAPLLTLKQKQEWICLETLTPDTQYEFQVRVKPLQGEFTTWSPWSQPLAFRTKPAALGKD


Biological target: T1, human IL-2Rβ (CD122 protein, Fc Tag) …
Test: phage ELISA competition
Outline: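 IC50 comes from absorbance measured across a dilution series of ligand in a competitive binding ELISA against human IL-2Rβ-Fc, with a phage tracer as the competitor. The phage tracer (50 μL) was added with no wash step for 45 min at 4° C. Detection of bound phage used TMB for 1 to 15 min at 25° C, then stop solution and a reading at 450 nm.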

| Binder | IC50 [µM] |
| --- | --- |
| QMVWWDCWSTQEGPVCELNWTA [SEQ ID NO 2879] | < 100 |
| WGKLVRDCFLAKVGDLCDLFLW [SEQ ID NO 2865] | < 100 |
| EFFHDCYVARVGELCDLFGW [SEQ ID NO 2876] | < 100 |
| SNWHDCLFAQVGELCDLPGS (disulfide 6-15 (inferred)) [SEQ ID NO 2851] | < 100 |
| EIFKDCLFANVGELCEIFPS [SEQ ID NO 2873] | < 100 |
| SYLCWLDHWGVICEED [SEQ ID NO 2877] | < 100 |
| GRYPDCYIAHVGELCEFYDG [SEQ ID NO 2842] | < 100 |
| HWVRDCFLAKVGELCDLFLW [SEQ ID NO 2867] | < 100 |
| WFPCWLAKVGELCDRDDLAGPS [SEQ ID NO 2815] | < 100 |
| QFVKDCFLAQVGDLCELFLW [SEQ ID NO 2869] | < 100 |
| WQIFDCYLAQVGELCDLQDT (disulfide 6-15 (inferred)) [SEQ ID NO 2841] | < 100 |
| WLPCWIAKIGDLCDLD [SEQ ID NO 2828] | < 100 |
| RLASDWWDCYIAKVGELCDF [SEQ ID NO 2855] | < 100 |
| WYPCWMAKVGELCDME [SEQ ID NO 2824] | < 100 |
| RVRRHSWWPCEIAVVGELCDLE [SEQ ID NO 2833] | < 100 |
| RLLRDCFLAKVGDLCELFVW [SEQ ID NO 2856] | < 100 |
| ELLVDCFKVKVGELCDLFFG (disulfide 6-15 (inferred)) [SEQ ID NO 2858] | < 100 |
| YWCSVWQLGSVCEMNNEETQ [SEQ ID NO 2880] | < 100 |
| AHFYDCFWAKAGELCDLWPS (disulfide 6-15 (inferred)) [SEQ ID NO 2863] | < 100 |
| DWLPDCYFANVGDLCSLFGS [SEQ ID NO 2870] | < 100 |
| YRWWYPCDIAQVGELCDLDYLL [SEQ ID NO 2826] | < 100 |
| WEHEFTWYPCWIAQVGELCDMD [SEQ ID NO 2830] | < 100 |
| LPFQDCYIAQVGELCDLPGT [SEQ ID NO 2835] | < 100 |
| RYVHDCFIAQVGDLCDLFLH [SEQ ID NO 2859] | < 100 |
| YSFKDCYFAKVGELCELFLW [SEQ ID NO 2875] | < 100 |
| LESLDCFFARIGDLCEIWDV [SEQ ID NO 2840] | < 100 |
| GGYYDCLIAEVGELCDIYGR [SEQ ID NO 2850] | < 100 |
| TPWYDCYIANVGDLCDFASA [SEQ ID NO 2839] | < 100 |

The remaining lines, values ahead:

| IC50 [µM] | Binder |
| --- | --- |
| < 100 | RYVPDCLKAQVGDLCDFFAW [SEQ ID NO 2822] |
| < 100 | VTVQDCYFARVGDLCDLFSP [SEQ ID NO 2846] |
| < 100 | NWFHDCFLARVGDLCDLFLD (disulfide 6-15 (inferred)) [SEQ ID NO 2874] |
| < 100 | SMDQDCYFAQVGELCVLFNQ [SEQ ID NO 2849] |
| < 100 | WAFYDCRNAQVGDFCDLWEF [SEQ ID NO 2848] |
| < 100 | WYPCWLAQLGELCDQDWDTPS [SEQ ID NO 2832] |
| < 100 | GGYYDCLIAEVGELCDMPGQ [SEQ ID NO 2837] |
| < 100 | WTCWLTQLGYDCNLDVVDQSLG [SEQ ID NO 2881] |
| < 100 | KWVHDCFLAKVGDVCDLFVV [SEQ ID NO 2860] |
| < 100 | NWLPDCLFANVGELCDIFPW [SEQ ID NO 2872] |
| < 100 | DGWWPCWIAQVGELCDLEDPV [SEQ ID NO 2834] |
| < 100 | QWFHNCFLARVGDTCDLFLW [SEQ ID NO 2857] |
| < 100 | HWFLDCFLANVGDLCDFFGN [SEQ ID NO 2871] |
| < 100 | VVCYACDIAHVGELCDLTCR [SEQ ID NO 2838] |
| < 100 | RGVYFPCWLAKVGDLCDSDEF [SEQ ID NO 2819] |
| < 100 | RYLYDCFLALVGDLCVKFHQ [SEQ ID NO 2862] |
| < 100 | WYPCWLAQVGELCDRE (disulfide 4-13 (inferred)) [SEQ ID NO 2818] |
| < 100 | WYTCMMDWLGVHCELE [SEQ ID NO 2878] |

| IC50 [µM] | Binder |
| --- | --- |
| < 100 | LVYYDCYMAQVGELCDLPSL (disulfide 6-15 (inferred)) [SEQ ID NO 2844] |
| < 100 | KGSSWFPCYFAQVGDLCDLY (disulfide 8-17 (inferred)) [SEQ ID NO 2817] |
| < 100 | RWMFDCLFARVGELCDIRPW (disulfide 6-15 (inferred)) [SEQ ID NO 2836] |
| < 100 | VSRYDCYIAKVGELCDFFEF [SEQ ID NO 2845] |
| < 100 | RAWWWPCELAQVGELCDLEPSS [SEQ ID NO 2820] |
| < 100 | SRVWHPCWLARVGELCDLEVSD [SEQ ID NO 2829] |
| < 100 | WWPCEWARIGELCDLE (disulfide 4-13 (inferred)) [SEQ ID NO 2816] |
| < 100 | RSLVDCFLVKVGDLCDFFNW [SEQ ID NO 2861] |
| < 100 | QITDSGWYPCWVAKVGELCDMD (disulfide 10-19 (inferred)) [SEQ ID NO 2825] |
| < 100 | WEWYDCLMAQVGELCDFEGN [SEQ ID NO 2847] |
| < 100 | WYPCWLAKVGELCDQE [SEQ ID NO 2821] |
| < 100 | HGILDCYFAKVGELCELFDW [SEQ ID NO 2868] |
| < 100 | THVHDCFLAKVGDLCDLFIV [SEQ ID NO 2866] |
| < 100 | WWPCYLAQIGELCDLV [SEQ ID NO 2823] |
| < 100 | HRGWVGWYPCEYALPGQLCDLE [SEQ ID NO 2831] |
| < 100 | SWLSDLQDCYIAQVGDLCQI [SEQ ID NO 2853] |
| < 100 | YDCYIAQVGELCDI [SEQ ID NO 2852] |
